The values below come from patent US20150044226A1 (SBI BIOTECH, published 2015).

Residue numbers refer to the chain shown, from its start.

Test [1] has as its target T1, human PLD4 (phospholipase D4) protein (human, UniProt Q96BZ4 1-506).
T1 construct: Type II transmembrane protein, 506 a.a; also called hPLD4; HuPLD4
T1 sequence: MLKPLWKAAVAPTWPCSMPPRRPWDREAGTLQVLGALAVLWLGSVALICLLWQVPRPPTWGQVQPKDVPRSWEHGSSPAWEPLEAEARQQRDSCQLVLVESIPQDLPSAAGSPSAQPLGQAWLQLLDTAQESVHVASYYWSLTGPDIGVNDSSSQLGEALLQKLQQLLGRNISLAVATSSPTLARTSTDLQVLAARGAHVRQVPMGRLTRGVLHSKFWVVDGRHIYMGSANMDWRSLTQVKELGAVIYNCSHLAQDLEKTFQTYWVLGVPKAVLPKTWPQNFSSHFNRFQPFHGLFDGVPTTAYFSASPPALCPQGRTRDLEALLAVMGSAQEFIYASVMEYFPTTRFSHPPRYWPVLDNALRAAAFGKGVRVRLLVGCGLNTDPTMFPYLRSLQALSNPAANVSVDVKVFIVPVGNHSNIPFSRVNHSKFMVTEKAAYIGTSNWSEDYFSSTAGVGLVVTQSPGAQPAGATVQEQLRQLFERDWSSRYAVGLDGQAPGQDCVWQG
The experiment in a line: FACS titration (0.001 to 30 µg/mL) of purified antibody on human PLD4-CT125 cells, positive cell frequency fitted with GraphPad Prism (FIG. 19). How it is done: For binding ability of the purified antibody, human PLD4-CT125 expression stable cell strain was reacted to nearly 100% of the positive staining rate at low concentration to high concentration (0.001 μg/mL to 30 μg/mL) of purified PLD4 antibody concentration. The frequency of staining positive cell and the antibody were data-analyzed using Graph Pad Prism version 5 software, and the dissociation constant molar concentration (Kd value) was computed in nM unit.

For test [2], the target named is T2, cynomolgus monkey PLD4 (cynomolgus monkey, UniProt Q96BZ4 1-506 (human entry)).
T2 construct: also called cynomolgus monkey PLD4 protein; cyno PLD4
T2 chain: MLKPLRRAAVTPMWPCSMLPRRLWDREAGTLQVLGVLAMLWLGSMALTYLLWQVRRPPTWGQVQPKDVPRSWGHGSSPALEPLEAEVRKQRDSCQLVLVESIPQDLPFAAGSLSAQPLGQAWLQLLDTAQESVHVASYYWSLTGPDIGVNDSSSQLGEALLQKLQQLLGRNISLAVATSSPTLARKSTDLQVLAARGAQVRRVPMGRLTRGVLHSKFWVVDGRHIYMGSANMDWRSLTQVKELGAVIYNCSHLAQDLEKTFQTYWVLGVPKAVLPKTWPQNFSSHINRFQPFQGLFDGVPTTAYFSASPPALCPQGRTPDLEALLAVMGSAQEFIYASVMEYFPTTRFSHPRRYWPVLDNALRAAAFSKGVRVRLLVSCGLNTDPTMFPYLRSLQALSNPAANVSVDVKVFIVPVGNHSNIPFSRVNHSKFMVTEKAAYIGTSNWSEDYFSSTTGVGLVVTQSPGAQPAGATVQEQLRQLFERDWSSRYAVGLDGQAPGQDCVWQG
Put plainly: FACS on cynomolgus monkey PLD4-CT125 cells (FIG. 16).

The target in test [3] is T3, rhesus monkey PLD4 (rhesus monkey, UniProt Q96BZ4 1-506 (human entry)).
T3 construct: also called rhesus monkey PLD4 protein
T3 chain: T2 chain with R56C, K66R, P78L
Put plainly: FACS on rhesus monkey PBMC, pDC population (FIG. 18-1, 18-2). The procedure: PBMC of rhesus monkey from the peripheral blood (10 mL; SHIN NIPPON BIOMEDICAL LABORATORIES, LTD.), was centrifuged with specific gravity using 96% Ficoll-Paque (trademark) PLUS (GE Healthcare company, Cat No. 17-1440-02). For FACS, 5×10⁵ of cells were used per sample. The cells were washed with FACS buffer cell, and then added with 10 μL of 10% cynomolgus monkey serum diluted with FACS buffer, and reacted at 4° C. for 20 minutes. The cells were washed with FACS buffer, and then added with 100 μL of the cell culture supernatant of each hybridoma and 10 μg/mL of mouse IgG2a, κ or mouse IgG1, κ, and reacted at 4° C. for 15 minutes. The cells were washed with FACS buffer, and then added with 1 μg/mL of APC-labeled anti-mouse IgG antibody, and reacted at 4° C. for 20 minutes. The cells were washed with FACS buffer, and then reacted with 25 μL of 10 fold dilution of FITC-labeled anti-Lineage 1 antibody, PE-labeled anti-CD123 antibody, and PcrCP-Cy5.5-labeled anti-HLA-DR antibody at 4° C. for 15 minutes. The cells were washed with FACS buffer, and then resuspended in 300 μL of FACS buffer, and analyzed with FACS calibur. The used hybridoma culture supernatant was specific to PLD4, and 10 kinds of 3B4, 5B7, 7B4, 8C11, 10C3, 11D10, 13D4, 13H11, 14C1, and 11G9.6, which bound well to CAL-1 cell or human pDC, were selected. As a result thereof, 5 kinds of the hybridoma cell culture supernatants, i.e., 5B7, 7B4, 13D4, 13H11, and 14C1 specifically bound to pDC cell population of cynomolgus monkey (Lineage-CD123+HLA-DR+) (FIG. 18).

Test [4] deals with T4, human PLD4 (phospholipase D4) protein (UniProt Q96BZ4 1-506).
T4 chain: T1 sequence
Put plainly: binding to human PLD4-CT125 stable cells; apparent Kd.

B1: anti-PLD4 mouse 5B7 antibody (antibody, V domains shown)
VH: EVQLQQSGPELVKPGASVKISCKASGYTFTDYNLHWVKQSHGKSLEWIGYIYPYNGNTGYNQKFKRKATLTVDNSSGTVYMELRSLTSEDSAVYYCARGGIYDDYYDYAIDYWGQGTSVTVSS
VL: DIQMTQSPASLSVSVGETVAITCRASENIYSHIAWYQQKEGKSPQRLVYGATNLAHGVPSRFSGSGSGTQYSLKINSLQSEDFGSYYCQHFWGTPWTFGGGTKLEIKR
notes: Tested as hybridoma culture supernatant and as protein A purified antibody; also called mp5B7 (hybridoma)
For B1, the results for the Kd in test [1] and in test [4] were at most 1 nM and 0.056 nM, respectively. Besides, the binding result in test [2] and in test [3] was “binds” throughout.

B2: anti-PLD4 mouse 7B4 antibody (antibody, mouse IgG2b, V domains shown)
VH: B1 VH
VL: B1 VL
notes: Tested as hybridoma culture supernatant and as purified antibody; also called mp7B4 (hybridoma)
On to B2, for which the Kd in test [1] was at most 1 nM; in test [4], 0.087 nM. For the same molecule, the binding result in test [2] and in test [3] was “binds” throughout.

B3: anti-PLD4 mouse 13H11 antibody (antibody, mouse IgG2b, V domains shown)
VH: DVQLQESGPGLVKPSQSLSLTCSVTGYSISSHYYWSWIRQFPGNRLEWMGYISYDGSNNYNPSLKNRISITRDTSKNQFFLKLNSVTTEDTATYNCAREGPLYYGNPYWYFDVWGAGTTVTVSS
VL: DIQMTQTTSSLSASLGGSVTISCRASQDIDNYLNWYQQKPDGTVKLLIYYTSRLHSGVPSRFSGSGSGTDYSLTISNLEQEDIATYFCQQFNTLPRTFGGGTKLEIKR
notes: Tested as hybridoma culture supernatant and as purified antibody; also called mp13H11 (hybridoma)
On to B3, for which the Kd was at most 1 nM in test [1] and 0.057 nM in test [4]. For the same molecule, the binding result in test [2] and in test [3] was “binds” in each case.

B4: anti-PLD4 mouse 14C1 antibody (antibody, mouse IgG1, V domains shown)
VH: B3 VH
VL: B3 VL
notes: Tested as hybridoma culture supernatant and as purified antibody
B4: the Kd in test [1] was above 1 nM; in test [4], 3.73 nM. Also, the binding result in test [2] and in test [3] was “binds” throughout.

B5: anti-PLD4 mouse 13D4 antibody (antibody, mouse IgG2b, V domains shown)
VH: B3 VH with S30T, S36T, R45K
VL: B3 VL with G17D, S18R, I83V
notes: Tested as hybridoma culture supernatant and as purified antibody; also called mp13D4 (hybridoma)
Consider B5, for which the Kd in test [1] is at most 1 nM; in test [4], 0.045 nM. Besides, the binding result in test [2] and in test [3] was “binds” each time.
